From article PMC2572732, “Structural Coupling of SH2-Kinase Domains Links Fes and Abl Substrate Recognition and Kinase Activation” (Cell, 2008)

System: Fes; GST-cortactin (residues 382–550)
Assay: In vivo kinase assay: Fes autophosphorylation and GST-cortactin phosphorylation in transfected HEK293T cells
Assay type: cell-based, human
Conditions: HEK293T cells, anti-pTyr western blot, in words
Description: To pursue the relevance of the observed interdomain interactions, we studied the effects of mutating residues in the SH2-kinase interface on human Fes activity. To this end, we monitored Fes autophosphorylation and transphosphorylation activity in transfected cells, using cortactin (residues 382–550) fused to GST as an exogenous substrate (Figures 2A and 2B). In an effort to perturb the close interaction between the SH2 and kinase domains, we mutated the conserved glycine residue (G463) located in the tightly packed interface between the SH2 N terminus and the kinase β4/β5 loop to valine (mutant G/V). Introducing this bulky side chain would be expected to sterically hinder alignment of the SH2 and kinase domains, resulting in an altered domain packing. Wild-type (WT) and G/V mutant full-length human Fes, each with an N-terminal Flag epitope, were expressed in HEK293T cells together with GST-cortactin.
Wild-type p130^Gag-Fps and the RX15m and AX9m mutants ([Stone et al., 1984]) were subcloned into the vector pRK5-myc ([Winberg et al., 2000]). Full-length human Fes was cloned into the vector pCMV7.1-3xFlag (Sigma, St. Louis, MO). Site-directed mutagenesis was performed using the QuickChange® II XL Kit (Stratagene, La Jolla, CA) following the manufacturer's directions. A GST-tagged C-terminal fragment of human cortactin (residues 382–550, accession Q14247) was prepared by PCR from cDNA (accession BC008799) and cloned into pEBG vector (gift from C. Duckett, University of Michigan Medical School, Ann Arbor).
HEK293T cells were maintained in Dulbecco's modified Eagle's medium supplemented with 10% (vol/vol) fetal bovine serum, 100 units/ml penicillin G sodium, and 100 μg/ml streptomycin and incubated at 37°C, 5% CO2.
Flag-tagged Fes or Myc-tagged p130^Gag-Fps and mutants thereof were cotransfected with GST-cortactin into HEK293T cells. After 24 hr, cells were lysed with NP-40 cell lysis buffer (50 mM Tris-HCl [pH 7.5], 150 mM NaCl, 1% NP-40, and 1 mM EDTA) that contained 1 mM phenylmethylsulfonyl fluoride, 10 μg/ml leupeptin, 10 μg/ml aprotinin, and 10 μg/ml pepstatin A. Cell lysates, normalized for protein concentration, were used in anti-Flag M2 antibody-agarose (Sigma) or anti-Myc antibody immunoprecipitations or glutathione sepharose affinity precipitations. Associated proteins were resolved using SDS-PAGE and analyzed by western blotting using anti-Flag M2 (Sigma), anti-c-Myc 9E10 (Santa Cruz), HRP-conjugated anti-GST (Santa Cruz), or anti-pTyr 4G10 (Upstate) antibodies.

B1: R/M: Fes with R483 in the SH2 pTyr-binding pocket substituted with methionine (protein, UniProt P07332 1-822, looked up, variant R483M)
Tyrosine-protein kinase …: MGFSSELCSPQGHGVLQQMQEAELRLLEGMRKWMAQRVKSDREYAGLLHHMSLQDSGGQSRAISPDSPISQSWAEITSQTEGLSRLLRQHAEDLNSGPLSKLSLLIRERQQLRKTYSEQWQQLQQELTKTHSQDIEKLKSQYRALARDSAQAKRKYQEASKDKDRDKAKDKYVRSLWKLFAHHNRYVLGVRAAQLHHQHHHQLLLPGLLRSLQDLHEEMACILKEILQEYLEISSLVQDEVVAIHREMAAAAARIQPEAEYQGFLRQYGSAPDVPPCVTFDESLLEEGEPLEPGELQLNELTVESVQHTLTSVTDELAVATEMVFRRQEMVTQLQQELRNEEENTHPRERVQLLGKRQVLQEALQGLQVALCSQAKLQAQQELLQTKLEHLGPGEPPPVLLLQDDRHSTSSSEQEREGGRTPTLEILKSHISGIFRPKFSLPPPLQLIPEVQKPLHEQLWYHGAIPRAEVAELLVHSGDFLVMESQGKQEYVLSVLWDGLPRHFIIQSLDNLYRLEGEGFPSIPLLIDHLLSTQQPLTKKSGVVLHRAVPKDKWVLNHEDLVLGEQIGRGNFGEVFSGRLRADNTLVAVKSCRETLPPDLKAKFLQEARILKQYSHPNIVRLIGVCTQKQPIYIVMELVQGGDFLTFLRTEGARLRVKTLLQMVGDAAAGMEYLESKCCIHRDLAARNCLVTEKNVLKISDFGMSREEADGVYAASGGLRQVPVKWTAPEALNYGRYSSESDVWSFGILLWETFSLGASPYPNLSNQQTREFVEKGGRLPCPELCPDAVFRLMEQCWAYEPGQRPSFSTIYQELQSIRKRHR
For B1, the Fes autophosphorylation (Flag-Fes) was “failed to autophosphorylate” and the transphosphorylation of cortactin (GST-cortactin) was “significantly reduced ability to transphosphorylate cortactin”.
